Experiment [1] deals with CMV-pp65495-503-TCR, on Jurkat T cells. The experiment is described as follows: cell-based or functional assay.
In experiment [2] the target is NY-ESO-1 TCR, clone 1G4 mutated version (a95:LY) with high affinity, on Jurkat T cells. As to the kind of experiment: cell-based or functional assay.
Experiment [3] addresses CMV-pp65495-503-TCR, on Jurkat T cells.
The target in experiment [4] is pp65495-503 tetramer-positive primary human T cells (their TCRs).
For experiment [5] the target is unchanged. This is another data set of the same source.
In experiment [6] the target is CMV-pp65495-503-TCR, on Jurkat T cells. This is another data set of the same source.
Experiment [7] has the same target. The source holds these as a separate data set.
In experiment [8] the target is NY-ESO-1 TCR, clone 1G4 mutated version (a95:LY) with high affinity, on Jurkat T cells.
For experiment [9] the target is unchanged. The source holds these as a separate data set.
For experiment [10] the target is unchanged. The source holds these as a separate data set.
Experiment [11] has as its target peptide on HLA-A*02:01 (human).
Experiment [12] deals with NY-ESO-1 peptide on HLA-A*02:01 (human).
Experiment [13] addresses peptide on HLA-A*02:01 (human). This is another data set of the same source.
In experiment [14] the target is Anti-Her2 BCR on B cells (from Trastuzumab vector, with PDGFR TM). The experiment is described as follows: flow cytometry; GFP viruses displaying HER2 on HER2-BCR+ B cells. (In general: A flow cytometer gives signals particle by particle.)
The target of experiment [15] is anti-SAR2-RBD BCR on B cells (RBD antibody of PDB 7BWJ with human IgG1 Fc and PDGFR TM). The experiment is described as follows: flow cytometry; GFP viruses displaying RBD on RBD-BCR+ B cells.
The target in experiment [16] is Flu-m158-66-TCR, on Jurkat T cells.

For orientation: Kd means the free concentration of one partner at which half of the binding sites on the other are occupied at equilibrium, for simple one-to-one binding.

Where “and” joins values, the source holds several entries; their conditions need not be identical. Equal values may be shown once. Read-outs that look alike come from different tables or passages of the source.

In experiment [1], “CMV pp65495-503 (…) presented by HLA-A0201, single-chain trimer of pMHC displayed on the lentiviral surface (from UniProt P61769 21-119) (peptide-MHC)” returned a GFP transgene expression after infection (cargo delivery) of 82%; a depletion of on-target T cells after HSV-TK gene delivery and GCV treatment, against GFP gene delivery of 8 fold. Also, the GFP transgene expression after infection (cargo delivery) in experiment [2] turned out to be 0.22%. This substance came in with a percent of tetramer positive cells that were GFP+ in experiment [3] of more than 90%. Further, in experiment [4], the percent of tetramer-positive T cells labeled amounted to 83% and the percent of tetramer-positive T cells recovered was determined as 98%. Also, the percent of tetramer+ T cells labeled in experiment [5] amounted to 99%. Also, the percent of antigen+ cells matched with the corresponding TCR sequence in experiment [6] worked out at 99.8%. Moreover, the percent of T cells GFP+ in experiment [7] is more than 87%.

For the substance “NY-ESO-1157-165 (…) presented by HLA-A0201, single-chain trimer of pMHC displayed on the lentiviral surface (from UniProt P61769 21-119) (peptide-MHC)”, in experiment [8], the percent of TCR-T cells stained turned out to be 95.7%. Further, the percent of antigen+ cells matched with the corresponding TCR sequence in experiment [9] is 97.4%. Also, in experiment [10], the percent of T cells GFP+ is more than 87% and the percent of T cells labeled (GFP+) stood at 88.2%.

Consider “NY-ESO-1 TCR, clone 1G4, wild-type (1G4 wt)”, for which the Kd was 10.8 µM and 84.9 µM in [11]; 10.8 µM and 84.9 µM in [12]; 10.8 µM and 84.9 µM in [13].

With “truncated Her2 (a1-a700) with its native TM domain, displayed on the lentiviral surface (from UniProt P04626 23-700) (receptor)”, in [14], the percent of B cells detected (GFP+) is 76%.

“Receptor Binding Domain (RBD) from SARS-CoV-2 spike protein fused with ICAM1 TM domain, displayed on (from UniProt P0DTC2 319-541)”: the percent of B cells labeled (GFP+) in experiment [15] stood at 88%.

Turning to “HPV16 E782-91 peptide presented by HLA-A2, single-chain trimer of pMHC displayed on the lentiviral s (from UniProt P03129 82-91; P61769 21-119) (peptide-MHC)”, the percent of T cells labeled (GFP+) in experiment [7], in experiment [10] and in [16] was 1% throughout.

(Values after patent publication US20250027073A1.)
